Experiment [1] concerns the target soluble CAR D12 (chicken). Briefly: SPR.
The target in experiment [2] is soluble CAR D1 domain (chicken). Nature of the experiment: SPR. (In general: Surface plasmon resonance follows binding to a sensor surface in real time, without labels.)

B1: CELO fiber1 knob (domain or fragment)
chain: GSSTPEVATYHCGDNLLESYDIFASLPNTNAAKVAAYCRLAAAGGVVSGTIQVTSYAGRWPKVGNSVTDGIKFAIVVSPPMDKDPRSNLSQWLGATVFPAGATTALFSPNPYGSLNTITTLPSIASDWYVPESNLVTYTKIHFKPTGSQQLQLASGELVVAAAKSPVQTTKYELIYLGFTLKQNSSGTNFFDPNASSDLSFLTPPIPFTYLGYYQ
For orientation: Kd means the equilibrium constant for the complex coming apart. Low values mean a tighter complex, high ones a looser complex. For B1, the Kd was 115 nM in experiment [1] and 420 nM in experiment [2].
